The test system of the series is ATP. Kind of series: switch fluorescence ratio, 500 uM ATP over buffer (Cy3 cluster intensity, sum of 5 cycles each) (fold (ratio)); higher = stronger signal-on switching upon ATP binding; sequences stand for … in TCGTCGGCAGCGTCAGATGTGTATAAGAGACAGTTTTTTTTTTTTTTTTTTTTTTTTT…TC. The conditions noted are these: aptamer strand: ATP DNA aptamer (quencher-CACCTGGGGGAGTATTGCGGAGGAAGG + anchor), 100 nM annealed; ATP concentration: 500 uM. An outline of the steps:
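For every switch-domain sequence, the fluorescence ratio is the mean of per-cluster values, each being summed target-cycle Cy3 intensity over summed buffer-cycle Cy3 intensity. Clusters outside 100-1000 RFU were excluded. On a modified Illumina MiSeq flow-cell, the Cy3-labelled switching-strand clusters were annealed to 100 nM quencher-labelled ATP aptamer, imaged in selection buffer and then after 15 min with 500 uM ATP at 22 °C. Five such cycles were run, with NaOH stripping and re-annealing between them.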

± gives the standard deviation of the averaged measurements.
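Further: ATP exposure 15 min at 22 °C before imaging.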

For TCGTAGTCGT, the switch fluorescence ratio amounted to 0.995 ± 0.064. Under TCGTATCAAG stands 0.969 ± 0.026. Under TCGTATGTTA stands 0.97 ± 0.014; under TCGTATTGGG, 1 ± 0.056.

On to TCGTCAAGTT, for which the switch fluorescence ratio amounted to 1.007 ± 0.01. On to TCGTCAGCGA, for which the switch fluorescence ratio worked out at 2.77 ± 0.06. With TCGTCAGTG the figure was 0.991 ± 0.012. Take TCGTCGCGTA: the switch fluorescence ratio is 0.978 ± 0.14. Consider TCGTCGGGGA, for which the switch fluorescence ratio was determined as 1.01 ± 0.014. For the sequence TCGTCGGTGG, the switch fluorescence ratio turned out to be 1 ± 0.011. Under TCGTCGTCCT stands 1.02 ± 0.024; under TCGTCTGGTT, 0.988 ± 0.03; under TCGTGACTGT, 1.02 ± 0.065.

As for TCGTGCTACA, the switch fluorescence ratio came to 0.97 ± 0.041. As for TCGTGGCGAG, the switch fluorescence ratio was found to be 1.01 ± 0.028. Under TCGTGGCTGT stands 1 ± 0.042; under TCGTGGGAGC, 1.014 ± 0.0089. With TCGTGGGGAT, the switch fluorescence ratio worked out at 1 ± 0.021.

Turning to TCGTGGGTGG, the switch fluorescence ratio amounted to 1.03 ± 0.056. Under TCGTGTACGC stands 1 ± 0.023. With TCGTGTAGGG the figure was 0.984 ± 0.014; with TCGTGTATGT, 1.014 ± 0.0039; with TCGTGTTCGG, 0.971 ± 0.029. For TCGTTAATGT, the switch fluorescence ratio was 1.01 ± 0.035. With TCGTTCATGA the figure was 1 ± 0.061. As for TCGTTCGCGG, the switch fluorescence ratio is 1.12 ± 0.015. With TCGTTCGTCT the figure was 0.973 ± 0.039; with TCGTTGACGT, 0.985 ± 0.04; with TCGTTGAGGC, 1.037 ± 0.0072. Under TCGTTGTCGT stands 1.04 ± 0.03; under TCGTTGTGAG, 1.004 ± 0.0089.

For TCGTTGTGTA, the switch fluorescence ratio was found to be 0.995 ± 0.03. With TCGTTTACTT the figure was 1.06 ± 0.13; with TCGTTTAGGA, 0.974 ± 0.031. With TCGTTTAGGT the figure was 0.977 ± 0.026; with TCGTTTATTA, 1 ± 0.089. Take TCGTTTGATT: the switch fluorescence ratio is 1.01 ± 0.019. Under TCGTTTGTTT stands 0.982 ± 0.04; under TCGTTTTCGT, 0.9787 ± 0.009. Under TCGTTTTTTT stands 1.07 ± 0.13. With TCTAAAAAAG the figure was 0.991 ± 0.028. As to TCTAAAAGAT, the switch fluorescence ratio was found to be 0.9771 ± 0.0026.

Take TCTAAAATG: the switch fluorescence ratio amounted to 0.972 ± 0.029. With TCTAAATGGG the figure was 1.029 ± 0.005. Regarding TCTAACAGCC, the switch fluorescence ratio was determined as 1.06 ± 0.028. As for TCTAAGTTTT, the switch fluorescence ratio amounted to 0.97 ± 0.01.

Regarding TCTAATACAG, the switch fluorescence ratio was 1.03 ± 0.032. Under TCTAATATAC stands 1.62 ± 0.028; under TCTACGAGAG, 1.04 ± 0.048. With TCTAGATAAA the figure was 1.04 ± 0.052. With TCTAGATGGT the figure was 0.992 ± 0.025; with TCTAGGGGAG, 1.007 ± 0.0099.

For the sequence TCTAGGGGGT, the switch fluorescence ratio was 0.9766 ± 0.0071. Under TCTAGGTTTT stands 1.005 ± 0.0047. Under TCTAGTTAGG stands 1.0115 ± 0.00098. On to TCTATAGGGG, for which the switch fluorescence ratio was determined as 1 ± 0.05. With TCTATATTAG the figure was 1.02 ± 0.023; with TCTATGAAAA, 0.9818 ± 0.004; with TCTATGGGAC, 1.05 ± 0.013.

Regarding TCTATTCTCG, the switch fluorescence ratio worked out at 1.013 ± 0.0056. With TCTATTTGGT, the switch fluorescence ratio turned out to be 0.9827 ± 0.0098. In the case of TCTCACGATT, the switch fluorescence ratio worked out at 1.022 ± 0.0061. Turning to TCTCAGGGGA, the switch fluorescence ratio is 1.16 ± 0.11.

For the sequence TCTCAGGTTG, the switch fluorescence ratio worked out at 1.072 ± 0.0058. For the sequence TCTCCATTGC, the switch fluorescence ratio stood at 1.67 ± 0.035.

On to TCTCCGTCCT, for which the switch fluorescence ratio came to 1.33 ± 0.025.

As to TCTCCTGGCT, the switch fluorescence ratio worked out at 1.01 ± 0.014. Take TCTCGGATGT: the switch fluorescence ratio stood at 0.99 ± 0.039.

Consider TCTCGGGGTA, for which the switch fluorescence ratio came out at 0.979 ± 0.046.

Regarding TCTCGGGTCT, the switch fluorescence ratio amounted to 1.02 ± 0.045. Take TCTCGGGTTT: the switch fluorescence ratio is 0.9951 ± 0.0055. As to TCTCGTAAAT, the switch fluorescence ratio is 1.034 ± 0.01.

Turning to TCTCGTACAG, the switch fluorescence ratio was found to be 0.982 ± 0.024. Under TCTCTGAGGA stands 0.985 ± 0.013. For the sequence TCTCTGGCAG, the switch fluorescence ratio stood at 1.17 ± 0.17.

On to TCTGAAACCG, for which the switch fluorescence ratio is 1.18 ± 0.12.

For the sequence TCTGAAATGG, the switch fluorescence ratio was 1.04 ± 0.047. With TCTGAAGGGG the figure was 1.12 ± 0.11. Regarding TCTGAATGG, the switch fluorescence ratio worked out at 1.01 ± 0.033. With TCTGACTTGA the figure was 0.968 ± 0.018; with TCTGAGAGGG, 1 ± 0.017; with TCTGAGATAT, 0.9872 ± 0.0028. Consider TCTGAGCGAC, for which the switch fluorescence ratio worked out at 1.57 ± 0.14. Regarding TCTGAGGTTT, the switch fluorescence ratio was 1.04 ± 0.029. With TCTGCCTAGG the figure was 1.13 ± 0.075. As for TCTGCGTAAG, the switch fluorescence ratio is 1.003 ± 0.0065. Under TCTGCGTCTG stands 1.16 ± 0.2; under TCTGCTTATT, 0.979 ± 0.048. In the case of TCTGGAGTTG, the switch fluorescence ratio came to 1.01 ± 0.084. Under TCTGGCAATG stands 1.46 ± 0.061. Under TCTGGCGGC stands 0.981 ± 0.039. TCTGGCTATT: the switch fluorescence ratio was 1.01 ± 0.02.

For the sequence TCTGGCTTTT, the switch fluorescence ratio worked out at 1.022 ± 0.0092. With TCTGGGAATT, the switch fluorescence ratio came to 1.046 ± 0.0027. For the sequence TCTGGGCTTT, the switch fluorescence ratio is 1.07 ± 0.1.

TCTGGGGAGT: the switch fluorescence ratio is 1.01 ± 0.043. As to TCTGGGGCGG, the switch fluorescence ratio amounted to 1.04 ± 0.074. In the case of TCTGGTGATA, the switch fluorescence ratio was 1.01 ± 0.017.

TCTGGTGTTC: the switch fluorescence ratio came to 1.045 ± 0.005. For the sequence TCTGGTTGGG, the switch fluorescence ratio was found to be 1.04 ± 0.064. With TCTGGTTGTG the figure was 1.01 ± 0.016; with TCTGTAATTT, 1.41 ± 0.59; with TCTGTAGGGG, 0.995 ± 0.013. With TCTGTGAGGT the figure was 1.034 ± 0.0072; with TCTGTGTTTT, 1.04 ± 0.038; with TCTGTTAGTG, 1.03 ± 0.045.

With TCTGTTGTTC, the switch fluorescence ratio is 0.993 ± 0.018.

Regarding TCTTAATTG, the switch fluorescence ratio amounted to 0.98356 ± 0.00079. Under TCTTAGAAC stands 1.009 ± 0.0062.

On to TCTTAGCATT, for which the switch fluorescence ratio was found to be 1.04 ± 0.077. Under TCTTAGGGTT stands 1.02 ± 0.017; under TCTTAGTTCG, 1.008 ± 0.01; under TCTTATAGGG, 1 ± 0.042. With TCTTATGGCC the figure was 0.975 ± 0.018; with TCTTATTCTG, 1.044 ± 0.0063; with TCTTCGGGAA, 1.09 ± 0.06. Under TCTTCTACCT stands 1.2 ± 0.022. As for TCTTCTAGCT, the switch fluorescence ratio worked out at 1.05 ± 0.019. Regarding TCTTGAAGGT, the switch fluorescence ratio came to 0.985 ± 0.0053. Under TCTTGCGTCG stands 0.976 ± 0.023.

Source of the values: the supplement of paper PMC10126150.
